Conditions: Homo sapiens, Thermal, DSC, reversible: no, whole UniProt chain shown

B1: Annexin A5 wild type, P08758 (protein)
chain: MAQVLRGTVTDFPGFDERADAETLRKAMKGLGTDEESILTLLTSRSNAQRQEISAAFKTLFGRDLLDDLKSELTGKFEKLIVALMKPSRLYDAYELKHALKGAGTNEKVLTEIIASRTPEELRAIKQVYEEEYGSSLEDDVVGDTSGYYQRMLVVLLQANRDPDAGIDEAQVEQDAQALFQAGELKWGTDEEKFITIFGTRSVSHLRKVFDKYMTISGFQIEETIDRETSGNLEQLLLAVVKSIRSIPAYLAETLYYAMKGAGTDDHTLIRVMVSRSEIDLFNIRKEFRKNFATSLYSMIKGDTSGDYKKALLLLCGEDD
**Q.** With B1 as the protein, how does the Tm (pH 4, Sodium phosphate 20 mM) read?
**A.** 40.6 °C

**Q.** What about the “unfolding enthalpy (calorimetric)” value (pH 4, Sodium phosphate 20 mM) of the same protein?
**A.** 128 kcal/mol

**Q.** What about the “unfolding enthalpy (van 't Hoff)” value (pH 4, Sodium phosphate 20 mM) of the same protein?
**A.** 151 kcal/mol

**Q.** What about the Tm (pH 6, Sodium phosphate 20 mM) of the same protein?
**A.** 50.5 °C

**Q.** What about the “unfolding enthalpy (calorimetric)” value (pH 6, Sodium phosphate 20 mM) of the same protein?
**A.** 147 kcal/mol

**Q.** What about the “unfolding enthalpy (van 't Hoff)” value (pH 6, Sodium phosphate 20 mM) of the same protein?
**A.** 174 kcal/mol

**Q.** And the Tm (pH 7, Sodium phosphate 20 mM)?
**A.** 53.4 °C

**Q.** What about the “unfolding enthalpy (calorimetric)” value (pH 7, Sodium phosphate 20 mM) of the same protein?
**A.** 163 kcal/mol

**Q.** And the “unfolding enthalpy (van 't Hoff)” value (pH 7, Sodium phosphate 20 mM)?
**A.** 189 kcal/mol

**Q.** And the Tm (pH 8, Sodium phosphate 20 mM)?
**A.** 54.4 °C

**Q.** What about the “unfolding enthalpy (calorimetric)” value (pH 8, Sodium phosphate 20 mM) of the same protein?
**A.** 162 kcal/mol

**Q.** And the “unfolding enthalpy (van 't Hoff)” value (pH 8, Sodium phosphate 20 mM)?
**A.** 199 kcal/mol

**Q.** What about the Tm (pH 8, Tris 50 mM, KCl 100 mM) of the same protein?
**A.** 52.5 °C

**Q.** And the “unfolding enthalpy (calorimetric)” value (pH 8, Tris 50 mM, KCl 100 mM)?
**A.** 163 kcal/mol

**Q.** And the “unfolding enthalpy (van 't Hoff)” value (pH 8, Tris 50 mM, KCl 100 mM)?
**A.** 190 kcal/mol

Source: FireProtDB (doi:10.1021/bi962163z)
